Laboratory results: patent US20170129921A1 (University of California, published 2017)
Read-outs that look alike come from different tables or passages of the source.

T1: C5a receptor 1 (human, UniProt P21730 1-350)
T1 construct: whole, on cells; Also used here for native C5a1 on human macrophages; also called C5a1; CD88
T1 sequence (looked up): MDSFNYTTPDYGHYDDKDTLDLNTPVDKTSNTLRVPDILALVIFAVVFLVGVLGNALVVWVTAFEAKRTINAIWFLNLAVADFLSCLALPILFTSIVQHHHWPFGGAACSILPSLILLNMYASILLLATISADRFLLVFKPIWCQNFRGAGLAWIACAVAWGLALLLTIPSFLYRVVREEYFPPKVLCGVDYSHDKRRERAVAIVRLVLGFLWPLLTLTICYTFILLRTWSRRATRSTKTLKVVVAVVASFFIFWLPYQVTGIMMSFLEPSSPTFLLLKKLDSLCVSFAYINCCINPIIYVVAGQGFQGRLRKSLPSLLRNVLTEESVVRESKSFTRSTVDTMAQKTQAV

B1: Human recombinant C5a (ligand, UniProt P01031 678-751, looked up)
chain: TLQKKIEEIAAKYKHSVVKKCCYDGACVNNDETCEQRAARISLGPRCIKAFTECCVVASQLRANISHKDMQLGR
notes: also called native C5a
B2: Peptide P32, Ac-RHYPYWR-OH (peptide)
peptide: Ac-RHYPYWR-OH
notes: Synthetic, computationally designed heptapeptide based on the C-terminus of C5a
B3: Peptide P59, Ac-LIRLWR-OH (peptide)
peptide: Ac-LIRLWR-OH
notes: Synthetic, computationally designed hexapeptide based on the C-terminus of C5a
B4: Human isolated C5a-des Arg (ligand, UniProt P01031 678-750, looked up)
chain: TLQKKIEEIAAKYKHSVVKKCCYDGACVNNDETCEQRAARISLGPRCIKAFTECCVVASQLRANISHKDMQLG

Assays:
Human C5a receptor 2 [1] = biological target: T2, Human C5a receptor 2 (human, UniProt Q9P296 1-337); assay: 125I-C5a displacement, SPA on Flp-In CHO-C5a2 membranes
T2 construct: whole, on cells; also used here for native C5a2 on human monocyte derived macrophages and for the human C5a2 of the DiscoveRx PathHunter kit; also called C5a2; C5L2
Procedure: P32 and P59 were previously shown to have no activity (either as an agonist or antagonist) up to a concentration of 100 μM, when the library was previously screened for activity at C3aR and C5a1²⁷.
(§1) C5a2 receptor binding studies were performed using a modification of a previously described scintillation proximity assay (SPA) method⁴⁸. Briefly, C5a2 SPA studies were performed in 96-well white isoplates with clear flat bottoms (Perkin Elmer, Waltham, Mass., USA). SPA beads (200 μg/well) were added, following the addition of various concentrations of competing ligands or buffer (6 pM to 500 μM) in a total volume of 80 μL of assay buffer (50 mM Tris-HCl, pH 7.4, 0.5% BSA, 5 mM MgCl₂, 1 mM CaCl₂). ¹²⁵I-C5a (˜20 pM) (specific activity, 2200 Ci mmol⁻¹) (Perkin Elmer) was added to C5a2 membrane preparations (˜2 μg/well). The final reaction volume per well comprised 20 μL of ligand/buffer, 20 μL of SPA beads, 20 μl of membrane and the assay was initiated by the addition of 20 μL of ¹²⁵I-C5a. The plate was then sealed using TopSeal-A (Perkin Elmer) sealing film and incubated with shaking for 1 h at room temperature. Radioligand binding was then assessed for 30 s/well using a 1450 Microbeta scintillation counter (Perkin Elmer).

C5a2-Venus [2] = biological target: T3, C5a2-Venus (UniProt Q9P296 1-337); assay: cell-based or functional assay
C5a receptor 1 = biological target: T1, C5a receptor 1; assay: 125I-C5a displacement on C5aR1 membranes
C5a2-Venus [3] = biological target: T3, C5a2-Venus; assay: cell-based or functional assay; remark: listed apart in the source
Human C5a receptor 2 [4] = biological target: T2, Human C5a receptor 2; assay: 125I-C5a displacement, SPA on Flp-In CHO-C5a2 membranes; remark: listed apart in the source
Procedure: To further address this issue, C5a2 SPA was used to test for the binding of C3a or C3a-des arg to C5a2.
as §1

T2 sequence (Q9P296 whole entry): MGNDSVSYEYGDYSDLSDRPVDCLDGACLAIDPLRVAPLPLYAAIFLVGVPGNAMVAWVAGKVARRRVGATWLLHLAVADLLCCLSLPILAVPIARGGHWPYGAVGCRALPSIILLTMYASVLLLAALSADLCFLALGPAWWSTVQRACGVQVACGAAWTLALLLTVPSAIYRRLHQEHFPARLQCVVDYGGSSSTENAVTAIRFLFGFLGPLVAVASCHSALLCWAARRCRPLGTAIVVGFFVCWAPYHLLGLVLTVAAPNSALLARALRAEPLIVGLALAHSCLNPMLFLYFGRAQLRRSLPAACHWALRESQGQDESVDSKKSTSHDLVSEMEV
T3 sequence (Q9P296 whole entry): as above

Binder | Ki (Human C5a receptor 2 [1]) [µM] | C5a2-β-arrestin 2 BRET Recruitment (% of C5a) (C5a2-Venus [2]) | Ki (C5a receptor 1) [µM] | fold higher efficacy of β-arrestin 2 recruitment than the affinity for C5a2 (C5a2-Venus [3]) [fold] | Ki (Human C5a receptor 2 [4]) [µM]
B1 | 0.0013 | 100 % of C5a |  |  | 
B2 | 223 | 28.8 % of C5a | 234 | ~37 | 
B3 | 48 | 52.9 % of C5a | 466 | ~6 | 
B4 |  |  |  |  | 0.0015
